Measured values taken from patent US8497072.
Substitutions are numbered along the chain they refer to. One block for each binder: values may come before it.

Target: soluble amyloid precursor protein alpha (UniProt P05067)
Assay: sandwich ELISA, EC50 of this antigen divided by EC50 of Aβ(1-42) globulomer

selectivity factor (EC50 ratio against Aβ(1-42) globulomer): > 100 fold
B1: monoclonal antibody 8C5 (antibody, V domains shown)
VH: EVQLVESGGGLVQPGGSLKLSCTASGFTFSSYGMSWVRQTPDKRLELVASIKNNGGSTYYPDSLKGRFTISRDNAKNTLYLQMSSLKSEDTAMYYCASGDYWGQGTTLTVSS
VL: DVVMTQTPLSLPVSLGDQASISCRSSQSLVHSNGDTFLHWYLQKPGQSPKLLIYKVSNRFSGVPDRFSGSGSGTDFTLKISRVEAEDLGIYFCSQSIHVPWTFGGGTKLEIKR

selectivity factor (EC50 ratio against Aβ(1-42) globulomer): > 100 fold
B2: monoclonal antibody 8F5 (antibody, V domains shown)
VH: B1 VH with T23A, K52N, N53S, L64V, T106S
VL: B1 VL with H31Y, F37Y, I90V, I97T
